“Also recorded” adds a separate entry of the source. Where two headings read alike, the source gives them in different places. One block for each substance: values may come before it.
What was measured:
MC2R [1] = biological target: T1, MC2R (Homo sapiens, UniProt Q01718); assay: Activation of hMC2R by ACTH analogs: cAMP production in CHO cells co-transfected with hMC2R and mouse MRAP1; type: cell-based; set-up: host or cells: CHO cells, transient transfection, pcDNA3.1; conditions: for MC2R activation relative to full-length ACTH / MC2R activation relative to full-length ACTH: fold drop in activity: analog alone, transfected CHO cells, cAMP after 15 min
Experimental: (§1) FIG. 1. Inhibition of ACTH(1-24) by ACTH(15-24) peptide. For all experiments, Chinese Hamster Ovary (CHO) cells were transiently transfected with a human melanocortin receptor gene construct (MC2R for FIGS. 1-3) and a mouse MRAP1 gene, as described in the Examples section. Two days later, individual wells of transfected CHO cells (10^5 cells per well) were incubated with ACTH(1-24) at concentrations ranging from 10^−6 to 10^−12 M. For these experiments, each concentration of ACTH(1-24) was co-incubated with either no KKRRPVKVYP (SEQ ID NO:1) (filled circle), 10^−6 M KKRRPVKVYP (SEQ ID NO:1) (filled diamond), 10^−7 M KKRRPVKVYP (SEQ ID NO:1) (half-filled square), 10^−8 KKRRPVKVYP (SEQ ID NO:1) (circle in square), or 10^−9 M KKRRPVKVYP (SEQ ID NO:1) (open square). After a 15 minute incubation, the amount of cAMP produced in each well of CHO cells was measured. Each data point is a minimum of n=3. […] The ACTH analog ACTH(11-24) [KPVGKKRRPVKVYP; SEQ ID NO:7] at a concentration of 10^−6 M produced a 50% inhibition of ACTH(1-24) stimulation, but had no effect on ACTH(1-24) stimulation when tested at a concentration of 10^−7 M.
(§2) To test this hypothesis, a human MC2R gene construct was transiently co-transfected with a mouse MCR2R accessory protein 1 (MRAP1) gene into CHO cells and subsequently, cAMP production was measured.
(§3) Human hMC2R, Genbank Accession No. AY225229.1, was synthesized by GenScript with a V-5 epitope tag and inserted into a pcDNA3.1 vector. Mouse (Mus musculus) mMRAP1, Genbank Accession No. NM_029844, was also synthesized by GenScript with a FLAG epitope tag and inserted into pcDNA3.1 vectors.
(§4) The experiments were all done in transiently transfected CHO cells. The CHO cells were grown at 37° C. in a humidified 5% CO2 incubator in Kaighn's Modification of Ham's F-12 (2 mM glutamine, 1500 mg/L bicarbonate) with 10% fetal bovine serum, 5 mL pen/strep, and 1 mL normocin.
(§5) In order to functionally express hMC2R in heterologous cells, like CHO cells, the hMC2R construct must be co-transfected with a mammalian MRAP (melanocortin receptor accessory protein; Hinkle, P. M. and Sebag, J. A. (2009) Structure and function of the melanocortin 2 receptor accessory protein. Mol. Cell. Endocrinol. 300:25-31). CHO cells were transfected with 2 μg of hMC2R and mMRAP using a Cell Line Nucleofector Kit (Amaxa, Inc.) with solution T and program U-023. The cells were then plated on a white, 96-well plate a density of 1×10^5 cells per well. 48 hours after transfection, cells were stimulated with the appropriate ligands in serum-free CHO media for 15 minutes at 37° C. at concentrations ranging from 10^−5 M to 10^−10 M. After a 15 minute incubation, a direct cAMP EIA kit (Assay Designs, Ann Arbor, Mich.) was used to measure cAMP in the CHO cells.
(§6) All experimental treatments were performed in no less than triplicate, and then corrected for control values, which were obtained by using transfected cells that were left unstimulated. In each of the assays, maximal activation levels were between three to 10 times the control level. Corrected values were normalized to 100 nM ACTH activation. Average values and standard errors of the mean were graphed using KaleidaGraph software, and the […] value for each ligand was determined.
Target sequence in this assay (Q01718 whole entry): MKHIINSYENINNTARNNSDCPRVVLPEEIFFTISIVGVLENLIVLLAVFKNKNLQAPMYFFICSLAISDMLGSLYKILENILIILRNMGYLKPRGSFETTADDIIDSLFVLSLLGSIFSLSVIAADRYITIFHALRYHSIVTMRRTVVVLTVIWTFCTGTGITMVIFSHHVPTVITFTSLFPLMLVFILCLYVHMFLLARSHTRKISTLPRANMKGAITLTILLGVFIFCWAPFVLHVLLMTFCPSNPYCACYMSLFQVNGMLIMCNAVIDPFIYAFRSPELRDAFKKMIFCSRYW
Target sequence in this assay (Q9D159 whole entry partner): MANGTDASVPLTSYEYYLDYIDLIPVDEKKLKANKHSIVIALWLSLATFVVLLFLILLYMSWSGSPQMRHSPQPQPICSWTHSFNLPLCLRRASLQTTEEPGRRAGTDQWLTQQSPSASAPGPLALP

MC2R [2] = biological target: T1, MC2R; assay: as above; type: cell-based; set-up: host or cells: CHO cells, transient transfection, pcDNA3.1; conditions: 10^-6 to 10^-12 M
Target sequence in this assay (Q01718 whole entry): as the sequence (Q01718 whole entry) above
Target sequence in this assay (Q9D159 whole entry partner): as the sequence (Q9D159 whole entry partner) above

MC2R [3] = biological target: T1, MC2R; assay: Inhibition of ACTH(1-24)-dependent hMC2R activation by co-incubated analog: cAMP in transfected CHO cells; type: cell-based; set-up: host or cells: CHO cells, transient transfection, pcDNA3.1
Experimental: as §1
Target sequence in this assay (Q01718 whole entry): as the sequence (Q01718 whole entry) above
Target sequence in this assay (Q9D159 whole entry partner): as the sequence (Q9D159 whole entry partner) above
FIG. 2. Dose response curve for ACTH analog AT814. AT814 is a previously-described ACTH inhibitor (WO 2006/052468). For this experiment, individual wells of transfected CHO cells (as described for FIG. 1) were incubated with ACTH(1-24) at concentrations ranging from 10^−6 to 10^−12 M alone (open circle) or ACTH(1-24) and AT814 at a concentration of 10^−6 M (open square).
FIG. 3. Dose response curve for ACTH analog AT814. […] Open circles: ACTH(1-24) alone; open squares: ACTH(1-24)+AT814 (10^−7 M).
as §2, §3, §4, §5, §6

MC2R [4] = biological target: T1, MC2R; conditions: from previous studies / literature, cited from earlier work
Target sequence in this assay (Q01718 whole entry, species assumed): as the sequence (Q01718 whole entry) above
Target sequence in this assay (Q8TCY5 whole entry partner, species assumed): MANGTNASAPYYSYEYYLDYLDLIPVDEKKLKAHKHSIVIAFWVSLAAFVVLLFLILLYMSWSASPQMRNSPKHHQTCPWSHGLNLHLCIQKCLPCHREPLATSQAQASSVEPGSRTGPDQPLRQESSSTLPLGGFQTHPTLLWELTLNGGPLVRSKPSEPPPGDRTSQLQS

human MC4R = biological target: T2, human MC4R (Homo sapiens, UniProt P32245); assay: Activation of human MC4R in hMC4R-transfected CHO cells (cAMP production); type: cell-based; conditions: analog at 10^-6 to 10^-12 M
T2 construct: expressed in transfected cells; host or cells: CHO cells, pcDNA3.1
T2 sequence (P32245 whole entry): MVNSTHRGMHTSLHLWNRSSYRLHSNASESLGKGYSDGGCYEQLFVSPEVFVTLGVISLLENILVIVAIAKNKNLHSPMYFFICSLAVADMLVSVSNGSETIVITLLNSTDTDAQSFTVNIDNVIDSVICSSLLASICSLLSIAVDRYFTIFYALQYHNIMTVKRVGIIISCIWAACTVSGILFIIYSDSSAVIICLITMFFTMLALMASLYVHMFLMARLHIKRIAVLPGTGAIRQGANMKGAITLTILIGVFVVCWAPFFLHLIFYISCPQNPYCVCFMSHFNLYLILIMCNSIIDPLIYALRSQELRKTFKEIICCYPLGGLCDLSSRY
Experimental: FIG. 4. Activation of human MC4R by ACTH analog AT814. Because AT814 has the HFRW (SEQ ID NO:8) motif, the hypothesis that this analog could activate the human MC4 receptor was tested. CHO cells were transfected with a human MC4R cDNA construct in a pcDNA3.1 vector.

[5] = analog at 10^-6 M co-incubated with ACTH(1-24) 10^-6 to 10^-12 M
[6] = analog at 10^-7 M co-incubated with ACTH(1-24) 10^-6 to 10^-12 M
[7] = analog at 10^-8 M co-incubated with ACTH(1-24)

Substance: SYSMEAAAAGKPVGKKRRPVKVYP (synthetic adrenocorticotropin hormone (ACTH) analog)
- MC2R activation relative to full-length ACTH (MC2R [1]): No activity

Substance: NAc-SYSMEHFRWGKPV-NH2 [α-MSH]
- activation of MC2R (previous studies) (MC2R [4]): cannot activate

Substance: RRPVKVYP (synthetic adrenocorticotropin hormone analog ACTH(17-24) peptide, human ACTH residues 17-24) [ACTH analog ACTH(17-24)]
- MC2R activation relative to full-length ACTH (MC2R [1]): No activity
- inhibition of ACTH(1-24) activation of hMC2R (MC2R [3]; [5]): did not block
- inhibition of ACTH(1-24) activation of hMC2R (MC2R [3]; analog at 10^-6 M co-incubated with ACTH(1-24) 10^-6 to 10^-12 M, listed as ACTH(17-24)): no inhibitory effect

Substance: SYSMEHFRWGKPVGKKAAAVKVYP (synthetic adrenocorticotropin hormone (ACTH) analog)
- MC2R activation relative to full-length ACTH: fold drop in activity (MC2R [1]): 100 fold drop

Substance: SYSMEHFRWAAAAAKKRRPVKVYP (synthetic adrenocorticotropin hormone (ACTH) analog)
- MC2R activation relative to full-length ACTH: fold drop in activity (MC2R [1]): 400 fold drop

Substance: SYSMEHFRWGKPVGKRAAWVKVYP (synthetic adrenocorticotropin hormone (ACTH) analog AT814 with modified KKRRP motif) [reference compound]
- activation of human MC4R (cAMP production) (human MC4R): can activate; also recorded: stimulated the production of cAMP in a dose dependent manner
- inhibition of ACTH(1-24) activation of hMC2R (MC2R [3]; [5]): competitive inhibitor; also recorded: completely inhibited
- inhibition of ACTH(1-24) activation of hMC2R (MC2R [3]; [6]): ineffective; also recorded: no inhibitory effect

The next lines start with results.

- MC2R activation relative to full-length ACTH (MC2R [1]): No activity
Substance: SYSMEHARWGKPVGKKRRPVKVYP (synthetic adrenocorticotropin hormone (ACTH) analog)

- activation of hMC2R (cAMP production) by analog incubated alone (MC2R [2]): did not activate
- MC2R activation relative to full-length ACTH (MC2R [1]): No activity
- inhibition of ACTH(1-24) activation of hMC2R (MC2R [3]; [5]): complete blockage
- inhibition of ACTH(1-24) activation of hMC2R (MC2R [3]; analog at 10^-6 M co-incubated with ACTH(1-24) 10^-6 to 10^-12 M, listed as ACTH(15-24)): completely blocked
- inhibition of ACTH(1-24) activation of hMC2R (MC2R [3]; [6]): complete blockage
- inhibition of ACTH(1-24) activation of hMC2R (MC2R [3]; analog at 10^-7 M co-incubated with ACTH(1-24) 10^-6 to 10^-12 M, listed as ACTH(15-24)): completely blocked
- drop in hMC2R activation by ACTH(1-24) (MC2R [3]; [7]): 34±5%
- inhibition of ACTH(1-24) activation of hMC2R (MC2R [3]; [7]): partial blockage
- inhibition of ACTH(1-24) activation of hMC2R (MC2R [3]; analog at 10^-9 M co-incubated with ACTH(1-24)): no effect
Substance: KKRRPVKVYP (synthetic adrenocorticotropin hormone analog ACTH(15-24) peptide, human ACTH residues 15-24, ACTH antagonist polypeptide) [ACTH antagonist polypeptide, residues 15-24 of human ACTH]

- inhibition of ACTH(1-24) stimulation (MC2R [3]; analog at 10^-6 M co-incubated with ACTH(1-24)): 50%
- inhibition of ACTH(1-24) activation of hMC2R (MC2R [3]; [6]): no effect
Substance: KPVGKKRRPVKVYP (synthetic adrenocorticotropin hormone analog ACTH(11-24) peptide, human ACTH residues 11-24) [ACTH analog ACTH(11-24), reference compound]

- inhibition of ACTH(1-24) activation of hMC2R (MC2R [3]; [5]): did not block
Substance: KKRRPAAAA (synthetic adrenocorticotropin hormone (ACTH) analog)

- MC2R activation relative to full-length ACTH (MC2R [1]): No activity
Substance: SYSMEHFRWGKPVGAAAAAVKVYP (synthetic adrenocorticotropin hormone (ACTH) analog)

- MC2R activation relative to full-length ACTH (MC2R [1]): No activity
Substance: SYSMEHFAWGKPVGKKRRPVKVYP (synthetic adrenocorticotropin hormone (ACTH) analog)

- MC2R activation relative to full-length ACTH: fold drop in activity (MC2R [1]): 100 fold drop
Substance: SYSMEHFRWGKPVGAARRPVKVYP (synthetic adrenocorticotropin hormone (ACTH) analog)

- MC2R activation relative to full-length ACTH (MC2R [1]): Full activity
Substance: SYSMEHFRWGKPVGKKRRPVKVYP [reference compound]
- activation of MC2R (previous studies) (MC2R [4]; listed as ACTH(1-24)): as potent an activator of MC2R as ACTH(1-39); also recorded: as fully as full-length human ACTH
- activation of hMC2R (cAMP production) by analog incubated alone (MC2R [1]; 10^-6 to 10^-12 M, listed as ACTH(1-24)): robust standard curve; also recorded: produced cAMP in a dose dependent manner
